The record followed here is patent publication US5558865.

The target of experiment [1] is native HIV-1MN gp120 (HIV-1 strain MN) (UniProt P05877).
The target in experiment [2] is native HIV-1IIIB gp120 (HIV-1 strain IIIB) (UniProt P04578).
In experiment [3] the target is native HIV-1MN gp120 (HIV-1 strain MN) (UniProt P05877). This is another data set of the same source.
Experiment [4] deals with native HIV-1IIIB gp120 (HIV-1 strain IIIB) (UniProt P04578). The source holds these as a separate data set.
In experiment [5] the target is gp120 of HIV-1 strain RF (HIV-1 strain RF).
The target in experiment [6] is peptide of amino acids 312-326 of HIV-1MN gp120 (HIV-1 strain MN). Kind of experiment: peptide ELISA, 500 ng MIgG. On the technique in general: An ELISA detects its analyte on a solid surface through an enzyme-linked reagent.
For experiment [7], the target named is peptide of amino acids 302-316 of HIV-1MN gp120 (HIV-1 strain MN). Nature of the experiment: peptide ELISA, 500 ng MIgG.
The target of experiment [8] is peptide of amino acids 322-336 of HIV-1MN gp120 (HIV-1 strain MN). Kind of experiment: peptide ELISA, 500 ng MIgG.

Chain of monoclonal antibody NM-01 (VH): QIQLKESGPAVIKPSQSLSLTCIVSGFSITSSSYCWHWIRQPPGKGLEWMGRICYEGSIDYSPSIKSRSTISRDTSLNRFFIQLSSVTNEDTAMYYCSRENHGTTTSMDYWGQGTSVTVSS
Chain of monoclonal antibody NM-01 (VL): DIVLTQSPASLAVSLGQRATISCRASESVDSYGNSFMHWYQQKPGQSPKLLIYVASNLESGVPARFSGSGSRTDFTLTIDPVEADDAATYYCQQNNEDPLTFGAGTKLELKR

On to monoclonal antibody NM-01, for which, in experiment [1], the ID50, MT-2 assay (cell viability by MTT), live MN virus turned out to be 2 µg/mL. Besides, in experiment [2], the ID50, MT-2 assay (cell viability by MTT), live IIIB virus came to 0.1 µg/mL. In experiment [3], this substance came in with an ID50, syncytium formation of MN-infected H9 cells with C8166 cells of 2 µg/mL. Moreover, the ID50, syncytium formation of IIIB-infected H9 cells with C8166 cells in experiment [4] is 3 µg/mL. The ID50, syncytium formation of RF-infected cells in experiment [5] came to 4 µg/mL.
For “mouse IgG (polyclonal serum or antibody)”, the optical density at 650 nm in experiment [6] was found to be 0.043 OD 650 nm; in experiment [7], 0.049 OD 650 nm; in experiment [8] it was 0.042 OD 650 nm.
